B1: Acidic FosW: library-derived peptide able to dissociate the cJun bZIP protein from the TRE sites in TRE mDHFR (peptide)
peptide: MASLEQRAEELARENEELEKEAEELEQELDELQAEIEQLEERNYALRKEIEDLQKQLEKLGAP

What was measured:
[1] = biological target: T1, cJun bZIP (Homo sapiens, UniProt P05412, S292Y); assay: Further TBS assay experiment, Example 3 (colony count, FIG. 3); assay type: cell-based; settings: for rescue of DHFR expression / change in number of colonies compared to plate 2: co-expressed with TRE mDHFR and cJun bZIP
T1 construct: cJun with the basic region and leucine zipper (cJun bZip); expressed in transfected cells
Source text: This experiment used similar plasmids to those set out in Example 1, with the exception that pET24a was used to express both the lac repressor and test compound using a single plasmid. Specifically, three plasmids were used: i) p300d expressing the mDHFR gene modified to include 15 TREs (TRE mDHFR, generated as described in Example 1); ii) p230d expressing either the leucine zipper part of cJun (cJun LZ) or cJun with the basic region and leucine zipper (cJun bZip); iii) pET24a expressing the lac repressor and either the leucine zipper part of cFos (cFos LZ) or the acidic FosW peptide (acidic FosW).
Plates were generated as set out in the following table:
The number of colonies produced in each plate were counted and this quantification is illustrated in FIG. 3.

[2] = tested on: AP-1; assay: AP-1 driven luciferase gene reporter assay; assay type: cell-based, mammalian; settings: transfected, versus control and dummy vector; FIG. 2
Source text: Wild-type AP-1 proteins have a long stretch of basic amino acids at the N-terminal of the protein which enables DNA binding. Acidic versions of AP-1 proteins can be generated with a long stretch of negatively charged amino acids (in place of the positive) which can serve as a DNA mimic. Acidic AP-1 peptide variants can therefore form heterodimers with wild type AP-1 proteins driven by both the dimerization motif and the negative/positive charge interaction, resulting in their sequestration from the DNA.
In order to test whether the peptides identified as being functional antagonists in the TBS assay are also likely to have the same activity in eukaryotic cells, a AP-1 driven luciferase gene reporter assay was carried out. This assay was carried out using no transfection (control), transfected dummy vector, acidic c-Jun, acidic c-Fos and library-derived peptide treated (FosW).

[3] = co-expressed with TRE mDHFR and cJun bZIP (plates 2 and 3)

T1 sequence (P05412 252-315 S292Y limits assumed): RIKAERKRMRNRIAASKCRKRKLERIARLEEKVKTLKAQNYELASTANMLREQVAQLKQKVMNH

Row | Molecule | rescue of DHFR expression / change in number of colonies compared to plate 2 [1] | number of bacterial colonies [1, 3] | number of bacterial colonies ([1]; control plate 1: co-expressed with TRE mDHFR and cJun LZ (no basic DNA-binding region)) | AP-1 driven luciferase activity [2]
1 | cFos LZ: the leucine zipper part of cFos; binds the coiled-coil region of cJun (MASTDTLQAETDQLEDEKYALQTEIANLLKEKEKLGAP) | not able to rescue expression of the DHFR protein | < 20 colonies | > 300 colonies | –
2 | B1 | substantial increase in the number of colonies | > 200 colonies | – | dramatic reduction in the signal

— US20210396736A1, “SCREENING ASSAY” (The University of Bath, priority 2018, published 2021)
